B2: Drosophila melanogaster PRL (wild-type) (enzyme, D. melanogaster, UniProt O61722 1-176, looked up)
chain: MSITMRQKDLRPAPALIEYKGMKFLITDRPSDITINHYIMELKKNNVNTVVRVCEPSYNTDELETQGITVKDLAFEDGTFPPQQVVDEWFEVLKDKYQQNPEACVAVHCVAGLGRAPVLVALALIELGLKYEAAVEMIRDKRRGAINAKQLSFLEKYKPKARLKHKNGHKNSCSVQ
notes: the single PRL of D. melanogaster, cloned without the C-terminal prenylation site; also called Drosophila PRL; fly PRL; source: E. coli BL21(DE3), purified (TALON Co2+ resin, Superdex-75)
B5: Drosophila melanogaster CNNM CBS-pair domain, GST-tagged (domain or fragment, D. melanogaster)
chain: VNIISGALELRKKTVADVMTHINDAFMLSLDALLDFETVSEIMNSGYSRIPVYDGDRKNIVTLLYIKDLAFVDTDDNTPLKTLCEFYQNPVHFVFEDYTLDIMFNQFKEGTIGHIAFVHRVNNEGDGDPFYETVGLVTLEDVIEELIQAEIVDE
notes: CBS-pair domain of the Drosophila CNNM protein encoded by the uex (unextended) gene; also called Drosophila CNNM; dCNNM; source: E. coli BL21(DE3), purified (glutathione-Sepharose, Superdex-75); not shown: GST, N-terminal, kept

Common to all, as to test: ITC; VP-ITC, 20 °C, 20 mM Hepes pH 7.5, 100 mM NaCl, 5 mM TCEP; GST-CBS-pairs titrated with PRL; single site-binding model
Common to all, as to settings: both partners purified
In general terms: In ITC the heat of successive injections is recorded.

The target in one test is T1, human PRL2 (human, UniProt Q12974 1-163).
T1 construct: human phosphatase of regenerating liver 2 (PRL2); also called hPRL2; source: E. coli BL21(DE3), purified (TALON Co2+ resin, Superdex-75)
T1 sequence: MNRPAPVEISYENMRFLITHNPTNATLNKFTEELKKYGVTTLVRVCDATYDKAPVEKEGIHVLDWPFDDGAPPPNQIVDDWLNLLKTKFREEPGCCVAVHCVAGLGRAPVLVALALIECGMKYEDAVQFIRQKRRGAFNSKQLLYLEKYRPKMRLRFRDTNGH

Test [1] concerns the target B5.
In test [2] the target is T2, Caenorhabditis elegans PRL (C. elegans).
T2 construct: the single PRL of C. elegans, cloned without the C-terminal prenylation site; also called C. elegans PRL; source: E. coli BL21(DE3), purified (TALON Co2+ resin, Superdex-75)

For test [3], the target named is B2.

B1: human CNNM3 CBS-pair domain (domain or fragment)
chain: LRCRTVEDVLTPLEDCFMLDASTVLDFGVLASIMQSGHTRIPVYEEERSNIVDMLYLKDLAFVDPEDCTPLSTITRFYNHPLHFVFNDTKLDAVLEEFKRGKSHLAIVQKVNNEGEGDPFYEVLGLVTLEDVIEEIIRSEILDE
notes: CBS-pair domain of human CNNM3; the ITC methods call all the titrated domains GST-CBS-pairs, the human one included; also called hCNNM3; GST-CBS-pair; source: E. coli BL21(DE3), purified; not shown: GST, N-terminal, kept
With B1, the binding result with human PRL2 is reported as “binds”.

B2: the “fold weaker affinity than the human complex” value in test [1] worked out at 20 fold.

B3: CBS-pair domain of a C. elegans CNNM protein (the one of two expressed that bound with 1 μM affinity) (domain or fragment)
chain: LKIAVGAMEIADKVVKDVMTKIEDVFMLPDTTVLNAKTVMEIVKMGYTRIPVYQYGDKNNVTDMLFVKDLALLDPDDNFTVKTVCGYHKHPVKFVMNDTPLPNLLEAFKKGEGHLAMVKRLINTDDKHDPSYVLVGVVTLEDIVEEILQAEINDE
modifications: Table S2: only CNNM1 (376-530) and CNNM3 (375-527) gave protein; assigning the 1 uM binder to CNNM1 is inferred from listing order (Figure 4 not in text)
In general, Kd refers to the equilibrium constant for the complex coming apart. Read a low Kd as higher affinity. For the molecule B3, binding in test [2] was characterised by a dissociation constant (Kd) of 1000 nM.

B4: CBS-pair domain of a C. elegans CNNM protein (the one of two expressed that bound with 13 μM affinity) (domain or fragment)
chain: FKMVLGALELYDKTVAHAMTRYEDIFMLPHTLTLGAGMVTQILDMGYTRIPIYENDRKNIVALLFVKDLALLDPDDNHNVMKIASIYNHEVRRVLVDMPLRNMLEEFKRGEYHMALVERLVEQEDKDPIYELCGLITLEDIIEEIIQCEIIDE
modifications: Assigning the 13 uM binder to CNNM3 is inferred from listing order (Figure 4 not in text)
In test [2], B4 had a Kd of 13000 nM.

B5 had a Kd in test [3] of 350 nM.

The values above are taken from PMC10040874, “Burst kinetics and CNNM binding are evolutionarily conserved properties of phosphatases of regenerating liver” (The Journal of Biological Chemistry, 2023).
